Assay results from patent US20090118178A1 (7TM PHARMA A S, published 2009).
Where no end group is shown, it is not given here.

Tests used:
Test in all cases: cell-based or functional assay
human Y1 receptor = biological target: T1, human Y1 receptor (human, UniProt P25929 1-384)
T1 sequence (looked up): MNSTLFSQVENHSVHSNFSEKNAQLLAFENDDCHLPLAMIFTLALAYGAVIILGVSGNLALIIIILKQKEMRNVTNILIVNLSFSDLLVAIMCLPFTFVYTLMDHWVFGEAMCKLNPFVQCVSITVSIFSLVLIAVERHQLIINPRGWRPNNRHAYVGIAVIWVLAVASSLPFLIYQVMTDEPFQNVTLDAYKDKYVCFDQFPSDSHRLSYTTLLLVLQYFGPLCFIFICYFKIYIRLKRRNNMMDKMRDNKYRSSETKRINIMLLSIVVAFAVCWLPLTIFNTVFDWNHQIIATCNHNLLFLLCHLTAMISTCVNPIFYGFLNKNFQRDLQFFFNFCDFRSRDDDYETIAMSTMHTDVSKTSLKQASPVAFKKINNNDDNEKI

human Y2 receptor = biological target: T2, human Y2 receptor (human, UniProt P49146 1-381)
T2 sequence (looked up): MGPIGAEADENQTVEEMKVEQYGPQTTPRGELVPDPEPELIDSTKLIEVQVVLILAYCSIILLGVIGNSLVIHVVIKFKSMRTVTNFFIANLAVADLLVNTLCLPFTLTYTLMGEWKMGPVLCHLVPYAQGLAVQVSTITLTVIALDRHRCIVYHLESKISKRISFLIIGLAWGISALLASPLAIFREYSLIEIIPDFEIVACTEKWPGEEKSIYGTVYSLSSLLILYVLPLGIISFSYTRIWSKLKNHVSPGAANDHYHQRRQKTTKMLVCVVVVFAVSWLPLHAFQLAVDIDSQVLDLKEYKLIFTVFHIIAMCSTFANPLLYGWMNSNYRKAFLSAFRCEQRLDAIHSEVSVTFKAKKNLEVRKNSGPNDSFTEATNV

human Y4 receptor = human Y4 receptor (human, UniProt P50391 1-375)
Sequence of human Y4 receptor (P50391 whole entry): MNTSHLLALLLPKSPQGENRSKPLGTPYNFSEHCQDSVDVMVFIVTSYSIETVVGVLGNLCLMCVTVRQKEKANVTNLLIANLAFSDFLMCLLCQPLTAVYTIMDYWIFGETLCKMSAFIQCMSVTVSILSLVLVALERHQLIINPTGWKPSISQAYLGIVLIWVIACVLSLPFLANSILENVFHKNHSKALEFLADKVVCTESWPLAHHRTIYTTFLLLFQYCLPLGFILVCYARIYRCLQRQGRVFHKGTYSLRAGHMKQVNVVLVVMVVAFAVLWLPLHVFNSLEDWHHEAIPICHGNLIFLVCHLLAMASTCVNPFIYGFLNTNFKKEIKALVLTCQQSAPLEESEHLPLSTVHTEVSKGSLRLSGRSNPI

B1: [Glu10, Leu17, Thr30]PP2-36 (peptide)
peptide: PLEPVYPGENATPEQLAQYAADLRRYINTLTRPRY-NH2
Human Y1 receptor
  EC50, inositol phosphate turnover in transfected COS-7 cells (hY1 potency assay): > 1000 nM
Human Y2 receptor
  EC50, inositol phosphate turnover in transfected COS-7 cells (hY2 potency assay): > 1000 nM
Human Y4 receptor
  EC50, inositol phosphate turnover in transfected COS-7 cells (hY4 potency assay): 1.07 nM

B2: [Asn30]PP2-36 (peptide)
peptide: PLEPVYPGDNATPEQMAQYAADLRRYINNLTRPRY-NH2
Human Y1 receptor
  EC50, inositol phosphate turnover in transfected COS-7 cells (hY1 potency assay): > 1000 nM
Human Y2 receptor
  EC50, inositol phosphate turnover in transfected COS-7 cells (hY2 potency assay): > 1000 nM
Human Y4 receptor
  EC50, inositol phosphate turnover in transfected COS-7 cells (hY4 potency assay): 3.05 nM

B3: [Gln30]PP2-36 (peptide)
peptide: PLEPVYPGDNATPEQMAQYAADLRRYINQLTRPRY-NH2
Human Y1 receptor
  EC50, inositol phosphate turnover in transfected COS-7 cells (hY1 potency assay): > 1000 nM
Human Y2 receptor
  EC50, inositol phosphate turnover in transfected COS-7 cells (hY2 potency assay): > 1000 nM
Human Y4 receptor
  EC50, inositol phosphate turnover in transfected COS-7 cells (hY4 potency assay): 0.99 nM

B4: [Ala30]PP2-36 (peptide)
peptide: PLEPVYPGDNATPEQMAQYAADLRRYINALTRPRY-NH2
Human Y1 receptor
  EC50, inositol phosphate turnover in transfected COS-7 cells (hY1 potency assay): > 1000 nM
Human Y2 receptor
  EC50, inositol phosphate turnover in transfected COS-7 cells (hY2 potency assay): > 1000 nM
Human Y4 receptor
  EC50, inositol phosphate turnover in transfected COS-7 cells (hY4 potency assay): 1.04 nM

B5: [Glu10]PP2-36 (peptide)
peptide: PLEPVYPGENATPEQMAQYAADLRRYINMLTRPRY-NH2
Human Y1 receptor
  EC50, inositol phosphate turnover in transfected COS-7 cells (hY1 potency assay): 564 nM
Human Y2 receptor
  EC50, inositol phosphate turnover in transfected COS-7 cells (hY2 potency assay): > 1000 nM
Human Y4 receptor
  EC50, inositol phosphate turnover in transfected COS-7 cells (hY4 potency assay): 0.91 nM

B6: [Thr30]PP2-36 (peptide)
peptide: PLEPVYPGDNATPEQMAQYAADLRRYINTLTRPRY-NH2
Human Y1 receptor
  EC50, inositol phosphate turnover in transfected COS-7 cells (hY1 potency assay): > 1000 nM
Human Y2 receptor
  EC50, inositol phosphate turnover in transfected COS-7 cells (hY2 potency assay): > 1000 nM
Human Y4 receptor
  EC50, inositol phosphate turnover in transfected COS-7 cells (hY4 potency assay): 1.07 nM
